Measured values as given in patent US20160009800A1.

What was measured:
[1] = target: human insulin receptor (human) (UniProt P06213); assay: FACS, serum-starved IM-9 cells, no insulin
[2] = target: human insulin receptor complexed with human insulin (human) (UniProt P06213); assay: FACS, serum-starved IM-9 cells pre-exposed to human insulin
[3] = target: human insulin receptor complexed with human insulin (human) (UniProt P06213); assay: KinExA antibody depletion by hINSR8-CHOK1 cells, with 175 nM insulin
[4] = target: human insulin receptor complexed with human insulin (human) (UniProt P06213); assay: KinExA, affinity with insulin against affinity without insulin
[5] = target: human insulin receptor (human) (UniProt P06213); assay: KinExA antibody depletion by hINSR8-CHOK1 cells, without insulin
[6] = target: human insulin receptor (human) (UniProt P06213); assay: FACS, serum-starved IM-9 cells; insulin state of the control not stated

Substance: 83-7 (antibody)
- MFI [1]: 18.4
- MFI [2]: 34.9
- Kd [3]: 160 pM
- Fold Improvement with Insulin [4]: 3 fold
- Kd [5]: 480 pM

Substance: Neg Control
- MFI [6]: 3.83
